Results on 17 molecules are retold here after patent US20170342144A1 (Sanofi, published 2017).

For one test, the target named is T1, human TGFβ2 (human, UniProt P61812 303-414).
T1 construct: also called TGFβ2 homodimer
T1 sequence: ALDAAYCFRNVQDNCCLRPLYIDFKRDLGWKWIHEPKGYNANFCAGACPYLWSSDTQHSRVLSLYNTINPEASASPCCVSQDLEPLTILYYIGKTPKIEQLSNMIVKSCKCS
As to the kind of experiment: Biacore off-rate vs wt GC1008, 50 nM. An excerpt: (§1) Plasmids encoding either the GC1008 heavy chain or light chain were used as a template in PCR-based mutagenesis reactions. Mutations to the encoding DNA were made to create 155 single amino acid substitutions of the encoded heavy chain amino acid sequence and one single amino acid substitution of the encoded light chain amino acid sequence. A QuikChange® Lightning Site-Directed Mutagenesis kit (Agilent Technologies, Santa Clara Calif.) was used according to the manufacturer's instructions to create DNA mutations using a set of forward and reverse primers, either designed for a specific amino acid or for all 20 amino acids with a degenerate codon (NNK). After sequencing confirmation, identified mutant DNA was paired with a wild-type light or heavy chain DNA for transfection into an Expi293F™ host cell suspension (Life Techonologies Corp., Grand Island, N.Y.). At 4 days post-transfection, conditioned media (1 mL) was harvested and purified using a 1 mL Protein A PhyTip® column (PhyNexus, Inc., San Jose, Calif.) and a PureSpeed™ 12-channel pipette (Rainin Instrument LLC, Oakland, Calif.). Purified variant antibody samples were analyzed in duplicate on a Biacore® 3000 (GE Healthcare) at 50 nM concentrations, using the 100 RU level TGFβ1, 2, and 3 immobilized surfaces. The off-rate (kd) of the variants was divided by the kd of the wild-type control to obtain the fold change in the kd. […] A heat map was generated to visualize the results. Variants that completely lost affinity for TGFβ were shown in red without numbers.

For the next test, the target named is T2, human TGFβ1 (human, UniProt P01137 279-390).
T2 construct: also called TGFβ1 homodimer
T2 sequence (P01137 279-390 limits assumed): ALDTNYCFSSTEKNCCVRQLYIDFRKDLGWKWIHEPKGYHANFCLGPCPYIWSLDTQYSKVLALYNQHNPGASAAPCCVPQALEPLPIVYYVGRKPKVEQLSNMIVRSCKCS
As to the kind of experiment: Biacore off-rate vs wt GC1008, 50 nM.
Source text: as §1
For orientation: In SPR one partner is held on a chip, and binding of the other changes the refractive index at the surface.

B1: D56P (antibody, V domains shown)
VH: QVQLVQSGAEVKKPGSSVKVSCKASGYTFSSNVISWVRQAPGQGLEWMGGVIPIVPIANYAQRFKGRVTITADESTSTTYMELSSLRSEDTAVYYCASTLGLVLDAMDYWGQGTLVTVSS
VL: ETVLTQSPGTLSLSPGERATLSCRASQSLGSSYLAWYQQKPGQAPRLLIYGASSRAPGIPDRFSGSGSGTDFTLTISRLEPEDFAVYYCQQYADSPITFGQGTRLEIK
notes: GC1008 IgG4 variant
In the case of B1, the kd var/kd wt in the test with human TGFβ2 is 1.9.

B2: E74G (antibody, V domains shown)
VH: QVQLVQSGAEVKKPGSSVKVSCKASGYTFSSNVISWVRQAPGQGLEWMGGVIPIVDIANYAQRFKGRVTITADGSTSTTYMELSSLRSEDTAVYYCASTLGLVLDAMDYWGQGTLVTVSS
VL: ETVLTQSPGTLSLSPGERATLSCRASQSLGSSYLAWYQQKPGQAPRLLIYGASSRAPGIPDRFSGSGSGTDFTLTISRLEPEDFAVYYCQQYADSPITFGQGTRLEIK
notes: GC1008 IgG4 variant
As to B2, the kd var/kd wt came to 1 with human TGFβ1 and 0.7 with human TGFβ2.

B3: I54S (antibody, V domains shown)
VH: QVQLVQSGAEVKKPGSSVKVSCKASGYTFSSNVISWVRQAPGQGLEWMGGVIPSVDIANYAQRFKGRVTITADESTSTTYMELSSLRSEDTAVYYCASTLGLVLDAMDYWGQGTLVTVSS
VL: ETVLTQSPGTLSLSPGERATLSCRASQSLGSSYLAWYQQKPGQAPRLLIYGASSRAPGIPDRFSGSGSGTDFTLTISRLEPEDFAVYYCQQYADSPITFGQGTRLEIK
notes: GC1008 IgG4 variant
On to B3, for which, in the test with human TGFβ2, the kd var/kd wt was determined as 1.7.

B4: E74Q (antibody, V domains shown)
VH: QVQLVQSGAEVKKPGSSVKVSCKASGYTFSSNVISWVRQAPGQGLEWMGGVIPIVDIANYAQRFKGRVTITADQSTSTTYMELSSLRSEDTAVYYCASTLGLVLDAMDYWGQGTLVTVSS
VL: ETVLTQSPGTLSLSPGERATLSCRASQSLGSSYLAWYQQKPGQAPRLLIYGASSRAPGIPDRFSGSGSGTDFTLTISRLEPEDFAVYYCQQYADSPITFGQGTRLEIK
notes: GC1008 IgG4 variant
Take B4: the kd var/kd wt in the test with human TGFβ1 stood at 1.2; with human TGFβ2 it was 0.8.

B5: E74P (antibody, V domains shown)
VH: QVQLVQSGAEVKKPGSSVKVSCKASGYTFSSNVISWVRQAPGQGLEWMGGVIPIVDIANYAQRFKGRVTITADPSTSTTYMELSSLRSEDTAVYYCASTLGLVLDAMDYWGQGTLVTVSS
VL: ETVLTQSPGTLSLSPGERATLSCRASQSLGSSYLAWYQQKPGQAPRLLIYGASSRAPGIPDRFSGSGSGTDFTLTISRLEPEDFAVYYCQQYADSPITFGQGTRLEIK
notes: GC1008 IgG4 variant
B5 displayed a kd var/kd wt with human TGFβ1 of 0.8.

B6: I54G (antibody, V domains shown)
VH: QVQLVQSGAEVKKPGSSVKVSCKASGYTFSSNVISWVRQAPGQGLEWMGGVIPGVDIANYAQRFKGRVTITADESTSTTYMELSSLRSEDTAVYYCASTLGLVLDAMDYWGQGTLVTVSS
VL: ETVLTQSPGTLSLSPGERATLSCRASQSLGSSYLAWYQQKPGQAPRLLIYGASSRAPGIPDRFSGSGSGTDFTLTISRLEPEDFAVYYCQQYADSPITFGQGTRLEIK
notes: GC1008 IgG4 variant
B6 gave a kd var/kd wt in the test with human TGFβ2 of 1.8.

B7: I54Q (antibody, V domains shown)
VH: QVQLVQSGAEVKKPGSSVKVSCKASGYTFSSNVISWVRQAPGQGLEWMGGVIPQVDIANYAQRFKGRVTITADESTSTTYMELSSLRSEDTAVYYCASTLGLVLDAMDYWGQGTLVTVSS
VL: ETVLTQSPGTLSLSPGERATLSCRASQSLGSSYLAWYQQKPGQAPRLLIYGASSRAPGIPDRFSGSGSGTDFTLTISRLEPEDFAVYYCQQYADSPITFGQGTRLEIK
notes: GC1008 IgG4 variant
Take B7: in the test with human TGFβ2, the kd var/kd wt came to 1.8.

B8: V55M (antibody, V domains shown)
VH: QVQLVQSGAEVKKPGSSVKVSCKASGYTFSSNVISWVRQAPGQGLEWMGGVIPIMDIANYAQRFKGRVTITADESTSTTYMELSSLRSEDTAVYYCASTLGLVLDAMDYWGQGTLVTVSS
VL: ETVLTQSPGTLSLSPGERATLSCRASQSLGSSYLAWYQQKPGQAPRLLIYGASSRAPGIPDRFSGSGSGTDFTLTISRLEPEDFAVYYCQQYADSPITFGQGTRLEIK
notes: GC1008 IgG4 variant
B8 yielded a kd var/kd wt with human TGFβ2 of 1.7.

B9: E74A (antibody, V domains shown)
VH: QVQLVQSGAEVKKPGSSVKVSCKASGYTFSSNVISWVRQAPGQGLEWMGGVIPIVDIANYAQRFKGRVTITADASTSTTYMELSSLRSEDTAVYYCASTLGLVLDAMDYWGQGTLVTVSS
VL: ETVLTQSPGTLSLSPGERATLSCRASQSLGSSYLAWYQQKPGQAPRLLIYGASSRAPGIPDRFSGSGSGTDFTLTISRLEPEDFAVYYCQQYADSPITFGQGTRLEIK
notes: GC1008 IgG4 variant
With B9, the kd var/kd wt with human TGFβ1 turned out to be 1.

B10: E74Y (antibody, V domains shown)
VH: QVQLVQSGAEVKKPGSSVKVSCKASGYTFSSNVISWVRQAPGQGLEWMGGVIPIVDIANYAQRFKGRVTITADYSTSTTYMELSSLRSEDTAVYYCASTLGLVLDAMDYWGQGTLVTVSS
VL: ETVLTQSPGTLSLSPGERATLSCRASQSLGSSYLAWYQQKPGQAPRLLIYGASSRAPGIPDRFSGSGSGTDFTLTISRLEPEDFAVYYCQQYADSPITFGQGTRLEIK
notes: GC1008 IgG4 variant
Regarding B10, the kd var/kd wt with human TGFβ1 is 0.7.

B11: S30H (antibody, V domains shown)
VH: QVQLVQSGAEVKKPGSSVKVSCKASGYTFHSNVISWVRQAPGQGLEWMGGVIPIVDIANYAQRFKGRVTITADESTSTTYMELSSLRSEDTAVYYCASTLGLVLDAMDYWGQGTLVTVSS
VL: ETVLTQSPGTLSLSPGERATLSCRASQSLGSSYLAWYQQKPGQAPRLLIYGASSRAPGIPDRFSGSGSGTDFTLTISRLEPEDFAVYYCQQYADSPITFGQGTRLEIK
notes: GC1008 IgG4 variant
As for B11, the kd var/kd wt turned out to be 0.9 in the test with human TGFβ1 and 0.8 with human TGFβ2.

B12: E74S (antibody, V domains shown)
VH: QVQLVQSGAEVKKPGSSVKVSCKASGYTFSSNVISWVRQAPGQGLEWMGGVIPIVDIANYAQRFKGRVTITADSSTSTTYMELSSLRSEDTAVYYCASTLGLVLDAMDYWGQGTLVTVSS
VL: ETVLTQSPGTLSLSPGERATLSCRASQSLGSSYLAWYQQKPGQAPRLLIYGASSRAPGIPDRFSGSGSGTDFTLTISRLEPEDFAVYYCQQYADSPITFGQGTRLEIK
notes: GC1008 IgG4 variant
Take B12: the kd var/kd wt came to 0.8 with human TGFβ1 and 0.7 in the test with human TGFβ2.

B13: I52P (antibody, V domains shown)
VH: QVQLVQSGAEVKKPGSSVKVSCKASGYTFSSNVISWVRQAPGQGLEWMGGVPPIVDIANYAQRFKGRVTITADESTSTTYMELSSLRSEDTAVYYCASTLGLVLDAMDYWGQGTLVTVSS
VL: ETVLTQSPGTLSLSPGERATLSCRASQSLGSSYLAWYQQKPGQAPRLLIYGASSRAPGIPDRFSGSGSGTDFTLTISRLEPEDFAVYYCQQYADSPITFGQGTRLEIK
notes: GC1008 IgG4 variant
In the test with human TGFβ2, B13 came in with a kd var/kd wt of 1.9.

B14: E74H (antibody, V domains shown)
VH: QVQLVQSGAEVKKPGSSVKVSCKASGYTFSSNVISWVRQAPGQGLEWMGGVIPIVDIANYAQRFKGRVTITADHSTSTTYMELSSLRSEDTAVYYCASTLGLVLDAMDYWGQGTLVTVSS
VL: ETVLTQSPGTLSLSPGERATLSCRASQSLGSSYLAWYQQKPGQAPRLLIYGASSRAPGIPDRFSGSGSGTDFTLTISRLEPEDFAVYYCQQYADSPITFGQGTRLEIK
notes: GC1008 IgG4 variant
In the test with human TGFβ1, B14 yielded a kd var/kd wt of 0.9.

B15: S30A (antibody, V domains shown)
VH: QVQLVQSGAEVKKPGSSVKVSCKASGYTFASNVISWVRQAPGQGLEWMGGVIPIVDIANYAQRFKGRVTITADESTSTTYMELSSLRSEDTAVYYCASTLGLVLDAMDYWGQGTLVTVSS
VL: ETVLTQSPGTLSLSPGERATLSCRASQSLGSSYLAWYQQKPGQAPRLLIYGASSRAPGIPDRFSGSGSGTDFTLTISRLEPEDFAVYYCQQYADSPITFGQGTRLEIK
notes: GC1008 IgG4 variant
In turn, B15 gave a kd var/kd wt in the test with human TGFβ1 of 0.7.

B16: E74D (antibody, V domains shown)
VH: QVQLVQSGAEVKKPGSSVKVSCKASGYTFSSNVISWVRQAPGQGLEWMGGVIPIVDIANYAQRFKGRVTITADDSTSTTYMELSSLRSEDTAVYYCASTLGLVLDAMDYWGQGTLVTVSS
VL: ETVLTQSPGTLSLSPGERATLSCRASQSLGSSYLAWYQQKPGQAPRLLIYGASSRAPGIPDRFSGSGSGTDFTLTISRLEPEDFAVYYCQQYADSPITFGQGTRLEIK
notes: GC1008 IgG4 variant
For the molecule B16, the figures for the kd var/kd wt in the test with human TGFβ1 and with human TGFβ2 were 0.9 and 0.8, respectively.

B17: E74T (antibody, V domains shown)
VH: QVQLVQSGAEVKKPGSSVKVSCKASGYTFSSNVISWVRQAPGQGLEWMGGVIPIVDIANYAQRFKGRVTITADTSTSTTYMELSSLRSEDTAVYYCASTLGLVLDAMDYWGQGTLVTVSS
VL: ETVLTQSPGTLSLSPGERATLSCRASQSLGSSYLAWYQQKPGQAPRLLIYGASSRAPGIPDRFSGSGSGTDFTLTISRLEPEDFAVYYCQQYADSPITFGQGTRLEIK
notes: GC1008 IgG4 variant
For the molecule B17, the kd var/kd wt with human TGFβ1 amounted to 0.8; with human TGFβ2, 0.9.
